# ± gives the uncertainty stated by the source.
# B1: LIM and senescent cell antigen-like-containing domain protein 2, residues 13 to 71; numbered along this chain, Q7Z4I7 (parent)
# chain: AVCQRCQARFSPAERIVNSNGELYHEHCFVCAQCFRPFPEGLFYEFEGRKYCEHDFQML
# Variants of: B1
# Assay: abundance fitness (aPCA) (normalised: wild type 0, dead -1); higher = more abundant; growth selection in yeast, the domain comes from the species named
# Conditions: Homo sapiens
row,Variant,abundance fitness
1,AVCQRCQARFSPANRIVNSNGELYHEHCFVCAQCFRPFPEGLFYEFEGRKYCEHDFQML,-0.343 ± 0.14
2,AVCQRCQARFSPADRIVNSNGELYHEHCFVCAQCFRPFPEGLFYEFEGRKYCEHDFQML,-0.075 ± 0.11
3,AVCQRCQARFSPAARIVNSNGELYHEHCFVCAQCFRPFPEGLFYEFEGRKYCEHDFQML,0.048 ± 0.076
4,AVCQRCQARFSPAQRIVNSNGELYHEHCFVCAQCFRPFPEGLFYEFEGRKYCEHDFQML,-0.106 ± 0.079
5,AVCQRCQARFSPAPRIVNSNGELYHEHCFVCAQCFRPFPEGLFYEFEGRKYCEHDFQML,-0.577 ± 0.11
6,AVCQRCQARFSPASRIVNSNGELYHEHCFVCAQCFRPFPEGLFYEFEGRKYCEHDFQML,-0.034 ± 0.064
7,AVCQRCQARFSPARRIVNSNGELYHEHCFVCAQCFRPFPEGLFYEFEGRKYCEHDFQML,-0.651 ± 0.071
8,AVCQRCQARFSPAYRIVNSNGELYHEHCFVCAQCFRPFPEGLFYEFEGRKYCEHDFQML,-0.224 ± 0.12
9,AVCQRCQARFSPALRIVNSNGELYHEHCFVCAQCFRPFPEGLFYEFEGRKYCEHDFQML,-0.512 ± 0.07
10,AVCQRCQARFSPAWRIVNSNGELYHEHCFVCAQCFRPFPEGLFYEFEGRKYCEHDFQML,-0.428 ± 0.087
11,AVCQRCQARFSPAMRIVNSNGELYHEHCFVCAQCFRPFPEGLFYEFEGRKYCEHDFQML,-0.41 ± 0.097
12,AVCQRCQARFSPAVRIVNSNGELYHEHCFVCAQCFRPFPEGLFYEFEGRKYCEHDFQML,-0.184 ± 0.067
13,AVCQRCQARFSPAHRIVNSNGELYHEHCFVCAQCFRPFPEGLFYEFEGRKYCEHDFQML,-0.451 ± 0.27
14,AVCQRCQARFSPAGRIVNSNGELYHEHCFVCAQCFRPFPEGLFYEFEGRKYCEHDFQML,-0.05 ± 0.076
15,AVCQRCQARFSPACRIVNSNGELYHEHCFVCAQCFRPFPEGLFYEFEGRKYCEHDFQML,-0.156 ± 0.092
16,AVCQRCQARFSPAFRIVNSNGELYHEHCFVCAQCFRPFPEGLFYEFEGRKYCEHDFQML,-0.658 ± 0.17
17,AVCQRCQARFSPAIRIVNSNGELYHEHCFVCAQCFRPFPEGLFYEFEGRKYCEHDFQML,-0.611 ± 0.19
18,AVCQRCQARFSPATRIVNSNGELYHEHCFVCAQCFRPFPEGLFYEFEGRKYCEHDFQML,-0.242 ± 0.082
19,AVCQRCQARFSPMERIVNSNGELYHEHCFVCAQCFRPFPEGLFYEFEGRKYCEHDFQML,-0.22 ± 0.1
20,AVCQRCQARFSPGERIVNSNGELYHEHCFVCAQCFRPFPEGLFYEFEGRKYCEHDFQML,-0.182 ± 0.083
21,AVCQRCQARFSPFERIVNSNGELYHEHCFVCAQCFRPFPEGLFYEFEGRKYCEHDFQML,-0.781 ± 0.15
22,AVCQRCQARFSPEERIVNSNGELYHEHCFVCAQCFRPFPEGLFYEFEGRKYCEHDFQML,0.078 ± 0.096
23,AVCQRCQARFSPLERIVNSNGELYHEHCFVCAQCFRPFPEGLFYEFEGRKYCEHDFQML,-0.039 ± 0.055

row,Variant,abundance fitness
1,AVCQRCQARFSPIERIVNSNGELYHEHCFVCAQCFRPFPEGLFYEFEGRKYCEHDFQML,-0.581 ± 0.17
2,AVCQRCQARFSPDERIVNSNGELYHEHCFVCAQCFRPFPEGLFYEFEGRKYCEHDFQML,0.142 ± 0.16
3,AVCQRCQARFSPTERIVNSNGELYHEHCFVCAQCFRPFPEGLFYEFEGRKYCEHDFQML,0.035 ± 0.071
4,AVCQRCQARFSPYERIVNSNGELYHEHCFVCAQCFRPFPEGLFYEFEGRKYCEHDFQML,-0.207 ± 0.12
5,AVCQRCQARFSPQERIVNSNGELYHEHCFVCAQCFRPFPEGLFYEFEGRKYCEHDFQML,-0.245 ± 0.11
6,AVCQRCQARFSPNERIVNSNGELYHEHCFVCAQCFRPFPEGLFYEFEGRKYCEHDFQML,0.186 ± 0.13
7,AVCQRCQARFSPRERIVNSNGELYHEHCFVCAQCFRPFPEGLFYEFEGRKYCEHDFQML,-0.211 ± 0.059
8,AVCQRCQARFSPPERIVNSNGELYHEHCFVCAQCFRPFPEGLFYEFEGRKYCEHDFQML,-0.076 ± 0.078
9,AVCQRCQARFSPWERIVNSNGELYHEHCFVCAQCFRPFPEGLFYEFEGRKYCEHDFQML,-0.372 ± 0.083
10,AVCQRCQARFSPKERIVNSNGELYHEHCFVCAQCFRPFPEGLFYEFEGRKYCEHDFQML,0.053 ± 0.072
11,AVCQRCQARFSPHERIVNSNGELYHEHCFVCAQCFRPFPEGLFYEFEGRKYCEHDFQML,0.017 ± 0.13
12,AVCQRCQARFSPVERIVNSNGELYHEHCFVCAQCFRPFPEGLFYEFEGRKYCEHDFQML,-0.327 ± 0.081
13,AVCQRCQARFSPCERIVNSNGELYHEHCFVCAQCFRPFPEGLFYEFEGRKYCEHDFQML,-0.176 ± 0.071
14,AVCQRCQARFSCAERIVNSNGELYHEHCFVCAQCFRPFPEGLFYEFEGRKYCEHDFQML,0.188 ± 0.096
15,AVCQRCQARFSNAERIVNSNGELYHEHCFVCAQCFRPFPEGLFYEFEGRKYCEHDFQML,-0.109 ± 0.49
16,AVCQRCQARFSLAERIVNSNGELYHEHCFVCAQCFRPFPEGLFYEFEGRKYCEHDFQML,-0.059 ± 0.055
17,AVCQRCQARFSMAERIVNSNGELYHEHCFVCAQCFRPFPEGLFYEFEGRKYCEHDFQML,0.014 ± 0.09
18,AVCQRCQARFSSAERIVNSNGELYHEHCFVCAQCFRPFPEGLFYEFEGRKYCEHDFQML,0.014 ± 0.061
19,AVCQRCQARFSQAERIVNSNGELYHEHCFVCAQCFRPFPEGLFYEFEGRKYCEHDFQML,-0.126 ± 0.09
20,AVCQRCQARFSRAERIVNSNGELYHEHCFVCAQCFRPFPEGLFYEFEGRKYCEHDFQML,-0.212 ± 0.069
21,AVCQRCQARFSDAERIVNSNGELYHEHCFVCAQCFRPFPEGLFYEFEGRKYCEHDFQML,0.145 ± 0.22
22,AVCQRCQARFSYAERIVNSNGELYHEHCFVCAQCFRPFPEGLFYEFEGRKYCEHDFQML,-0.093 ± 0.23
23,AVCQRCQARFSGAERIVNSNGELYHEHCFVCAQCFRPFPEGLFYEFEGRKYCEHDFQML,-0.047 ± 0.064

row,Variant,abundance fitness
1,AVCQRCQARFSIAERIVNSNGELYHEHCFVCAQCFRPFPEGLFYEFEGRKYCEHDFQML,0.045 ± 0.081
2,AVCQRCQARFSTAERIVNSNGELYHEHCFVCAQCFRPFPEGLFYEFEGRKYCEHDFQML,0.003 ± 0.075
3,AVCQRCQARFSHAERIVNSNGELYHEHCFVCAQCFRPFPEGLFYEFEGRKYCEHDFQML,0.186 ± 0.22
4,AVCQRCQARFSAAERIVNSNGELYHEHCFVCAQCFRPFPEGLFYEFEGRKYCEHDFQML,0.067 ± 0.063
5,AVCQRCQARFSFAERIVNSNGELYHEHCFVCAQCFRPFPEGLFYEFEGRKYCEHDFQML,-0.036 ± 0.13
6,AVCQRCQARFSEAERIVNSNGELYHEHCFVCAQCFRPFPEGLFYEFEGRKYCEHDFQML,0.035 ± 0.12
7,AVCQRCQARYSPAERIVNSNGELYHEHCFVCAQCFRPFPEGLFYEFEGRKYCEHDFQML,-0.359 ± 0.1
8,AVCQRCQARWSPAERIVNSNGELYHEHCFVCAQCFRPFPEGLFYEFEGRKYCEHDFQML,-0.523 ± 0.1
9,AVCQRCQARTSPAERIVNSNGELYHEHCFVCAQCFRPFPEGLFYEFEGRKYCEHDFQML,-0.093 ± 0.068
10,AVCQRCQARFAPAERIVNSNGELYHEHCFVCAQCFRPFPEGLFYEFEGRKYCEHDFQML,0.137 ± 0.063
11,AVCQRCQARFNPAERIVNSNGELYHEHCFVCAQCFRPFPEGLFYEFEGRKYCEHDFQML,-0.105 ± 0.12
12,AVCQRCQARFTPAERIVNSNGELYHEHCFVCAQCFRPFPEGLFYEFEGRKYCEHDFQML,-0.087 ± 0.067
13,AVCQRCQARFEPAERIVNSNGELYHEHCFVCAQCFRPFPEGLFYEFEGRKYCEHDFQML,0.019 ± 0.078
14,AVCQRCQARFDPAERIVNSNGELYHEHCFVCAQCFRPFPEGLFYEFEGRKYCEHDFQML,0.102 ± 0.091
15,AVCQRCQARFCPAERIVNSNGELYHEHCFVCAQCFRPFPEGLFYEFEGRKYCEHDFQML,-0.155 ± 0.13
16,AVCQRCQARFGPAERIVNSNGELYHEHCFVCAQCFRPFPEGLFYEFEGRKYCEHDFQML,-0.011 ± 0.063
17,AVCQRCQARFQPAERIVNSNGELYHEHCFVCAQCFRPFPEGLFYEFEGRKYCEHDFQML,-0.075 ± 0.08
18,AVCQRCQARFVPAERIVNSNGELYHEHCFVCAQCFRPFPEGLFYEFEGRKYCEHDFQML,-0.227 ± 0.055
19,AVCQRCQARFIPAERIVNSNGELYHEHCFVCAQCFRPFPEGLFYEFEGRKYCEHDFQML,-0.248 ± 0.12
20,AVCQRCQARFRPAERIVNSNGELYHEHCFVCAQCFRPFPEGLFYEFEGRKYCEHDFQML,-0.175 ± 0.061
21,AVCQRCQARFWPAERIVNSNGELYHEHCFVCAQCFRPFPEGLFYEFEGRKYCEHDFQML,-0.131 ± 0.08
22,AVCQRCQARFHPAERIVNSNGELYHEHCFVCAQCFRPFPEGLFYEFEGRKYCEHDFQML,-0.407 ± 0.16
23,AVCQRCQARFYPAERIVNSNGELYHEHCFVCAQCFRPFPEGLFYEFEGRKYCEHDFQML,-0.18 ± 0.15

row,Variant,abundance fitness
1,AVCQRCQARFFPAERIVNSNGELYHEHCFVCAQCFRPFPEGLFYEFEGRKYCEHDFQML,-0.227 ± 0.12
2,AVCQRCQARFLPAERIVNSNGELYHEHCFVCAQCFRPFPEGLFYEFEGRKYCEHDFQML,-0.053 ± 0.05
3,AVCQRCQARFMPAERIVNSNGELYHEHCFVCAQCFRPFPEGLFYEFEGRKYCEHDFQML,0.004 ± 0.067
4,AVCQRCQARFKPAERIVNSNGELYHEHCFVCAQCFRPFPEGLFYEFEGRKYCEHDFQML,-0.055 ± 0.074
5,AVCQRCQARFSPAEEIVNSNGELYHEHCFVCAQCFRPFPEGLFYEFEGRKYCEHDFQML,0.01 ± 0.069
6,AVCQRCQARFSPAEQIVNSNGELYHEHCFVCAQCFRPFPEGLFYEFEGRKYCEHDFQML,-0.021 ± 0.065
7,AVCQRCQARFSPAEGIVNSNGELYHEHCFVCAQCFRPFPEGLFYEFEGRKYCEHDFQML,-0.144 ± 0.054
8,AVCQRCQARFSPAEFIVNSNGELYHEHCFVCAQCFRPFPEGLFYEFEGRKYCEHDFQML,-0.467 ± 0.085
9,AVCQRCQARFSPAEDIVNSNGELYHEHCFVCAQCFRPFPEGLFYEFEGRKYCEHDFQML,-0.009 ± 0.078
10,AVCQRCQARFSPAELIVNSNGELYHEHCFVCAQCFRPFPEGLFYEFEGRKYCEHDFQML,-0.255 ± 0.049
11,AVCQRCQARFSPAECIVNSNGELYHEHCFVCAQCFRPFPEGLFYEFEGRKYCEHDFQML,-0.198 ± 0.072
12,AVCQRCQARFSPAEVIVNSNGELYHEHCFVCAQCFRPFPEGLFYEFEGRKYCEHDFQML,-0.107 ± 0.05
13,AVCQRCQARFSPAEKIVNSNGELYHEHCFVCAQCFRPFPEGLFYEFEGRKYCEHDFQML,0.147 ± 0.075
14,AVCQRCQARFSPAEHIVNSNGELYHEHCFVCAQCFRPFPEGLFYEFEGRKYCEHDFQML,-0.168 ± 0.1
15,AVCQRCQARFSPAEPIVNSNGELYHEHCFVCAQCFRPFPEGLFYEFEGRKYCEHDFQML,-0.03 ± 0.076
16,AVCQRCQARFSPAEIIVNSNGELYHEHCFVCAQCFRPFPEGLFYEFEGRKYCEHDFQML,-0.017 ± 0.067
17,AVCQRCQARFSPAEMIVNSNGELYHEHCFVCAQCFRPFPEGLFYEFEGRKYCEHDFQML,-0.069 ± 0.076
18,AVCQRCQARFSPAESIVNSNGELYHEHCFVCAQCFRPFPEGLFYEFEGRKYCEHDFQML,0.098 ± 0.045
19,AVCQRCQARFSPAEAIVNSNGELYHEHCFVCAQCFRPFPEGLFYEFEGRKYCEHDFQML,-0.178 ± 0.06
20,AVCQRCQARFSPAETIVNSNGELYHEHCFVCAQCFRPFPEGLFYEFEGRKYCEHDFQML,0.037 ± 0.06
21,AVCQRCQARFSPAENIVNSNGELYHEHCFVCAQCFRPFPEGLFYEFEGRKYCEHDFQML,-0.184 ± 0.1

# Reference: the Human Domainome abundance scans (Beltran et al. 2025)
